Assay: yeast display, Sf9 membrane polyspecificity reagent, FACS + sequencing; frameworks hold sequencing errors
In short: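 Nanobodies came from a synthetic yeast display library in Saccharomyces cerevisiae BJ5465, induced with galactose for 36–48 hours and stained for 1 hour at 4 °C with 10% biotinylated, detergent-solubilized Sf9 membrane reagent. Cells were enriched on streptavidin microbeads and then FACS-sorted, with low and high (top ~1%) gates set on anti-HA fluorescence for expression and streptavidin fluorescence for reagent binding. Each polyreactivity label reflects the gate a clone came from. Genes were amplified by colony PCR, sequenced by MiSeq 2 × 250 and filtered by CDR length.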

Sequence: QVQLVESGGGLVQAGGSLRLSCAASGFIITSNAMGWYRQAPGKERELVAAITWSGGRTYYADSVKGRFTISRDNAKNTVYLQMNSLKPEDTAVYYCAAGYYKGFTLVRVIFDYWGHGTQVTVSS
- polyreactivity (PSR sort gate): low polyreactivity

Sequence: QVQLVESGGGLVQAGGSLRLSCAASGSIFYRYAMGWYRQAPGKVRELVAAINNGGGRTYADSVKGRFTISRDNAKNTVYFQMNSLKPEDTAVYYCAKRTSRLAPYDYWGQGTQVTVSS
- polyreactivity (PSR sort gate): high polyreactivity

Sequence: QVQLVESGGGLVQAGGSLRLSCAASGRIFRYYAMGWYRQATGKERELVASISSGGSTNYADSVKGRCTISRDNAKNTVYLQMNSLKPEDTAVYYCNAVLCFRAVYEYDYWGQGTQVTVSS
- polyreactivity (PSR sort gate): high polyreactivity

Sequence: QVQLVESGGGLVQAGGSLRLSCAASGRTFTYNAMGWYRQAPGKERELVAAISRSGGRTYYADSVKGRFTISRDNAKNTVYLQMNSLKPEDTAVYYCNTDGYYTTAKYGYWGQGTQVTVSS
- polyreactivity (PSR sort gate): high polyreactivity

Sequence: QVQLVESGGGLVQAGGRLRLSCAASGRTFHYYALGWYRQATGKERELVAVIRYSGGRTYYADTVKGRFTISRDNAKNTVYLQMNSLKPEDTAVYYCNKGRWRTDPPVYLIAFDYWGQGTQVTVSS
- polyreactivity (PSR sort gate): low polyreactivity

Sequence: QVQLVESGGGLVQAGGSLRLSCAASGRIFYYYAMGWYRPAPGKERELVAAITSGGRTYYADSVKGRFTISRDNAKNTVYLQMNSLKPEDTAVYYCAAERTYTYLGPGYEYWGQGTQVTVSS
- polyreactivity (PSR sort gate): low polyreactivity

Sequence: QVQLVESGGGLVQSGGSLRLSCAASGSTFQSNAMGWYRQAPGKERELVATITQSGATTYYADSVKGRFTISRDNAKNTVYLQMNSLKPEDSAVYYCNVDTYQKRWFWLDLDGGYWGQGTQVTVSS
- polyreactivity (PSR sort gate): low polyreactivity

Sequence: QVQLVESGGGLVQAGCSLRLSCAASGITVYDYDMGWYRQAPGKERELVAAITWNGGSTYYADSVKGRFTISRDNAKNTVYLQMNSLKPEDTAVYYCAAESYYIYDYWGQGTQVTVSS
- polyreactivity (PSR sort gate): high polyreactivity

Sequence: QVQLVESGGGLVQAGGSLRLSCAASGIIYHFNDMGWYRQAPGQERELVASIDSTGSTNYADSVKGRFTLSRDNAKNTVYLQMNSLKPEDTAVYYCAVLNHRVDSVLTRYYYWGQGTQVTVSS
- polyreactivity (PSR sort gate): low polyreactivity

Sequence: QVQLVESGGGLVQAGGSLRLSCAGSGRIFLDKAMGWYRQAPGKERELVAAINGSGGSTYYADSVKGRFTISRDNAKNTVYLQMNSLKPKIPRSITATKRYIQSLWGFDYWGQGTQVTVSS
- polyreactivity (PSR sort gate): low polyreactivity

Sequence: QVQLVESGGGLVQAGGSLRLSCAASGRTFFFYAMGWYRQAPGKERELVAGITSRGTRTYYADSVKGRFTISRDNAKNTVYLQMNSLKPEDTAVYYCATDDCRDWLNYWGQGTQVTVSS
- polyreactivity (PSR sort gate): low polyreactivity

Sequence: QVQLVESGGGLVQAGGSLRLSCAASGGIFGYNMGWNRQAPGKEWELVAAITSGGITNYADSVKGRFTISRDNAKNTVYLQMNSLKPQDTAVNYCNRSPGGGKETVLGGDYWGQGTQVTVSS
- polyreactivity (PSR sort gate): low polyreactivity

Sequence: QVQLVESGGGLVQAGGSLRLSCAASGSTFSVYGMGWYRQAPGKERELVAAISGSGSRTYYADSVKGRFTISRDNAKNTVYLQMNSLKPEDTAVYYCAAVRRLLQGRTMYYWGQGTQVTVSS
- polyreactivity (PSR sort gate): high polyreactivity

Sequence: HVQLVESGGGLVQAGGSLRLSCAASGRIFPGNVMGWYRHAPGKERELVAGIDSSGGSTSYADSVKGRFTISRDNAKNSVYLQMNSLKPEDTAVYYCAKVRDQARYQWGYQEFDYWGEGTQVTVSS
- polyreactivity (PSR sort gate): low polyreactivity

Sequence: QVQLVDSGGGLVQAGGSLRLSCAASGRTFIFYAMGWSRQAPGKERELVAAISSGGSTDYADSVKGRFTISRDNAKNTVYLQMNSLKPEDTAVYFCKADTFQYPSTYDYWGQGNQVTVSS
- polyreactivity (PSR sort gate): low polyreactivity

Sequence: QVQLVESGGGLVQAGGSLRLSCAASGITFPFYAMGWYRQAPGKERELVAAISRRGGRTYYADSVKGRFTISRDNAKNTVYLQMNSLKPEDTAVYYCAAANGSADGDYWGQGTQVTVSS
- polyreactivity (PSR sort gate): high polyreactivity

Sequence: QFQLVESGGGLVQAGASLRLSCASSLSTFDHNAMGSYRQAPGKESELVAAISSSGGRTYYADSVKGRFTISRDNAKNTVYLQMNSLKPEDTAVYYCAAVVRRAPEFDYSGQGTQVTVSS
- polyreactivity (PSR sort gate): high polyreactivity

Sequence: QVHLVESGGGLVQAGGSLRLSCADYGSNLYYKAMGWYRQAPGKEMQVVAAISTGGRTNYADSVKGRFTISRDNAKNTVYLQMNSLKPEDSAVYYCAAETTTEITDTDYDYWGQGTQVTVSS
- polyreactivity (PSR sort gate): low polyreactivity

Sequence: QVQLVESGGGLVQAGGSLRLSCAASGSIFTGYAMGWYRQAPGKERELVAAISRSGGRTYYADSVKGRFTISRDNAKYTVYLQMNRLKPEDTAVYYCNSVVSPWNQGYYYWGQGTQVTVSS
- polyreactivity (PSR sort gate): high polyreactivity

Sequence: QVQLVESGGGLVQAGCSLRLSCAASGSIFPCNAMGWYRQAPGKERELVAAISRGCSTNYADSVKGRFTISRDNAKNTDYLQMNSLKPEDTSVFDCAVYYYSYHGGRGYDYWGQGTQVTVSS
- polyreactivity (PSR sort gate): high polyreactivity

Sequence: QVQLVESGGGLVQAGGSLRLSCAASGSTFRKYAMGWYRHAPGKEREFVAAITWSTGTTYYADSVKGRFTISRDHAKNTVYLQMNSLKPEDTAVYDCAADSQPPHELYESIEHESWGQGTQVTVSS
- polyreactivity (PSR sort gate): low polyreactivity

Sequence: QVQLVESGGGLVQAGGSLRLSCAASGSIIGIYALGWYRQAPGKERELVAAISWSGGSTYYADSVKGRFTISRDNAKNTVYLQMNSLKPEDTAVYYCAARGHYQYYWGQGTQVTVSS
- polyreactivity (PSR sort gate): low polyreactivity

Sequence: QVQLVESGGGLVQAGGSLRLSCAASGGIFGDYAMGWYRQEPGKERELVAAINSGDSTNYADSVKGRFTISRDNAKNTVYLQMNSLKPEDTAVYYCNARGYWVYYVEYDYWGQGTQVTVSS
- polyreactivity (PSR sort gate): low polyreactivity

Sequence: HVQQQESGGGLEQAGGSLRLSCAASGNISYSRNMGWYRQAPGKERELVAAIDRGAITYYADSVKGRFTISRDNAKNTVYLQIYSLKPEDTAVYYCAAVYHDRWDHRYWGQGTQVTVSR
- polyreactivity (PSR sort gate): high polyreactivity

Sequence: QVQLVESGGGLVQAGGSLRLSCAASGRTFYNNAMGWYRQAPGKERELVAAISWSGGSTFYADSVKGRFTISRDNAKKTVYLQMNSLKPEDTAVYYCAALGRPYGSDYWGQGTQVTVSS
- polyreactivity (PSR sort gate): high polyreactivity

Sequence: QVQLVESGGSLVQSGGSLRLSCAASGSIFYRNAMGWYRQEPGKERELVASITSGGRTNYADSVKGRFTISRDNAKNTVYLQMNSLKPEDTAVYYCARGRASYTKSGPTPYTGYGYWGQGTQVTVSS
- polyreactivity (PSR sort gate): low polyreactivity

Sequence: QVKLVESGGGLVQAGGSLRLSCAASGRTFIYYAMGWYRQAPGKERELVAGITYSVGSTYYADSVKGRFTISRDNAKNTVYLQMNSLKPEVTAVYYCAAKPVGTYSRPHDYWGQGTQVTVSS
- polyreactivity (PSR sort gate): low polyreactivity

Sequence: QVQLVESGGGLVQAGGSLRLSCAASGRTSVRNAMGWYRQAPGKERELVAAISRRGTRTYYADSVKGRFTISRDNAKNTVYLQMNSLKPEDTAVYYCAASNGYQAVTYDYWGQGTQVTVSS
- polyreactivity (PSR sort gate): high polyreactivity

Sequence: QVQLVESGGGLVQAGGSLRLSCAASGIIFRVYTMGWYRQAPGKERELVATIRTSGDSTYYADSVKGRFTISRDNAKNTVYLQMNSLKPEDTAVYYCAKRRNYWHYYWGQGTQVTVSS
- polyreactivity (PSR sort gate): high polyreactivity

Sequence: QVQLVESGGGLVQAGGSLRLSCAASGRTFTWYAMGWYRQAPGKERELVAAISKSGGSTYYADSVKGRFTISRDNAKNTVYLQMNSLKPEDTAVYYCNADFYGYFLGYGYWGQGTQVTVSS
- polyreactivity (PSR sort gate): low polyreactivity

Sequence: QVQLVESGGGLVQAGGSLRLSCAASGSTFWGNAMGWYRQAPGKERELVAAISWIGGGTYYADSVKGRFTISRDNAKNTVYLQMNSLKPEDTAVYYCAAKIFIRVHYYSYRMYYWGQGTQVTVSS
- polyreactivity (PSR sort gate): low polyreactivity

Sequence: QVQLVDSGGGLVQAGGSLRLIFAASGITQPYYAMGWYRQAPGKERELVAGISSRGGSTYYADSVKGRFTISRDNAKNTVYLQMNSLIPEDTAVYYCAAKVASTRLGPAYGYWGQGTQVTLSS
- polyreactivity (PSR sort gate): high polyreactivity

Sequence: QVQLVESGGGLVQAGGSLRVSCAASGRIFGYNAMGWSRQAPVKERELDAAIRGGGSTYYADSVKGRFTISRDNAKHSVYLQMYSLKPEDTAVYYCAATSYTYVLSPYRGDYWGQGTQVTVSS
- polyreactivity (PSR sort gate): high polyreactivity

Sequence: QVQVVESGGGIVKAGGSLRLSCAPSGSTFYYYAMGWYRQAPRKERELVATISWSGDSTYADSVKGRFTISRDNSKNTVYLQLTSLKPEDTAVYYCATCGDWWGFRYDYWGQCTQVTVSS
- polyreactivity (PSR sort gate): low polyreactivity

Sequence: HVQHVESGGGLVQAGGSLRLSCAASGRTFGYYALGWYRQAPGKERELVARISTRGGSTNYADSVKGRFTISRDNAKNTVFLQMNSLKPEDTAVYSCYARGGYGGGYDYWVQGTQVTVSS
- polyreactivity (PSR sort gate): high polyreactivity

Sequence: QVQLVESGGGLVQAGGSLRLSCAASGIIFGQNAMGWYRQAPGKERELVAAITISGGSTYYADSVKGRFTISRDNAKNTVYLQMNSLKPEDTAVYYCAARRVTWKDIARGYRYGYWGQGTQVTVSS
- polyreactivity (PSR sort gate): low polyreactivity

Sequence: QVHLVESGGGLVQAGGSLRLSCAASGRTFQYNAMGWYRQSPGTERELVAAISWRGARTYYADSVKGRFTISRDYAKNTVYLQMNSLNPEDTAVYYCAAAPYGYRRYEYWGQGTQVTVSS
- polyreactivity (PSR sort gate): high polyreactivity

Sequence: QVQLVESGGGLVQAGGSLRLSCAASGLIFSYYAMGWYRQAPGKERELVAAITGSGGTTYYADSVKGRFTISRDNAKNTVYLQMNSLKPEDTAVYYCATPPPEVWQRWYREYDYWGQGTQVTVSS
- polyreactivity (PSR sort gate): low polyreactivity

Sequence: QVQLVESGGGLVQAGGSLRLSCAAYGRIFLGYAMGWYIQAPGKERELVAVISYSGTRTYYADSVKGRFTISRDNAKNTVYLQMNSLKPEDTAVYYCNARANGFKDGYWGQGTQVTVSS
- polyreactivity (PSR sort gate): high polyreactivity

Sequence: QVQLVESAGRLVQAGGSLRLSCAASGSTYSSNAMGGYRQEPGKERELVAAITTSGGSTYYADSVKGRFTISRDNAKNTVYLQMNSLIPADTAVYYCAADLVHAYQWSIFLYGYWGLGTQVTVSS
- polyreactivity (PSR sort gate): low polyreactivity

Sequence: QVQLVESGGGLVQAGGSLRLSCAGSGIIFSRYAMGWYRQAPGKERELVAAISSSGGTTYYADSVKGRFTISRDNAKNTVYLQMNSQKPEDTAVYYCYAPAFYKYKSFYAHSGYDYWGQGTQVTVSS
- polyreactivity (PSR sort gate): high polyreactivity

Sequence: QVQLVESGGGLVQAGGSLRLSCAASGLTFGIYAMGWYRQAPGKERELVATISWRGGSTYYADSVKGRFTISRDNAKNTVYLQMNSLKPEDTAVYYCNADNEYRLGYWDDSCGQGTQVTVSS
- polyreactivity (PSR sort gate): low polyreactivity

Sequence: QVQLGESGGGLVQAGGSLRLSCAASGITFERNAMGWYRQAPGKERELVAAWSGGGTYYADSVKGRFTISRDNAKNTVYLQMDSLKPEDTAVYYCAADYRYDLSIGVNYWGQGTQVTVSS
- polyreactivity (PSR sort gate): low polyreactivity

Source: the nanobody polyreactivity screen of Harvey et al. (2022)
